Results published in patent US20150031112A1 (SHIRE HUMAN GENETIC THERAPIES, published 2015).

Target: the molecule itself
Experiment: X-ray crystallography, crystallographic symmetry applied (self-association, homotrimer)

B1: NAGLU-kif (recombinant human alpha-N-acetylglucosaminidase expressed in HT1080 cells treated with kifunensine) (enzyme)
chain: DEAREAAAVRALVARLLGPGPAADFSVSVERALAAKPGLDTYSLGGGGAARVRVRGSTGVAAAAGLHRYLRDFCGCHVAWSGSQLRLPRPLPAVPGELTEATPNRYRYYQNVCTQSYSFVWWDWARWEREIDWMALNGINLALAWSGQEAIWQRVYLALGLTQAEINEFFTGPAFLAWGRMGNLHTWDGPLPPSWHIKQLYLQHRVLDQMRSFGMTPVLPAFAGHVPEAVTRVFPQVNVTKMGSWGHFNCSYSCSFLLAPEDPIFPIIGSLFLRELIKEFGTDHIYGADTFNEMQPPSSEPSYLAAATTAVYEAMTAVDTEAVWLLQGWLFQHQPQFWGPAQIRAVLGAVPRGRLLVLDLFAESQPVYTRTASFQGQPFIWCMLHNFGGNHGLFGALEAVNGGPEAARLFPNSTMVGTGMAPEGISQNEVVYSLMAELGWRKDPVPDLAAWVTSFAARRYGVSHPDAGAAWRLLLRSVYNCSGEACRGHNRSPLVRRPSLQMNTSIWYNRSDVFEAWRLLLTSAPSLATSPAFRYDLLDLTRQAVQELVSLYYEEARSAYLSKELASLLRAGGVLAYELLPALDEVLASDSRFLLGSWLEQARAAAVSEAEADFYEQNSRYQLTLWGPEGNILDYANKQLAGLVANYYTPRWRLFLEALVDSVAQGIPFQQHQFDKNVFQLEQAFVLSKQRYPSQPRGDTVDLAKKIFLKYYPRWVAGSW
modifications: N-linked high mannose glycans at N261, N272, N435, N503, N526 and N532 (numbered as amino acids 24-743)
notes: There is one molecule in the asymmetric unit, and the trimer is generated by crystallographic symmetry; also called NAGLU24-743; Naglu-kif R3
binding result: binds
